Numbering of substitutions follows the chain as printed.
T1: Human MuSK (R&D Systems, cat. 10189-MK, histidine tag) (human, UniProt O15146 24-495)
T1 construct: Bought protein; also called human monomeric MuSK-6xhis; not shown: histidine tag (6xhis)
T1 sequence: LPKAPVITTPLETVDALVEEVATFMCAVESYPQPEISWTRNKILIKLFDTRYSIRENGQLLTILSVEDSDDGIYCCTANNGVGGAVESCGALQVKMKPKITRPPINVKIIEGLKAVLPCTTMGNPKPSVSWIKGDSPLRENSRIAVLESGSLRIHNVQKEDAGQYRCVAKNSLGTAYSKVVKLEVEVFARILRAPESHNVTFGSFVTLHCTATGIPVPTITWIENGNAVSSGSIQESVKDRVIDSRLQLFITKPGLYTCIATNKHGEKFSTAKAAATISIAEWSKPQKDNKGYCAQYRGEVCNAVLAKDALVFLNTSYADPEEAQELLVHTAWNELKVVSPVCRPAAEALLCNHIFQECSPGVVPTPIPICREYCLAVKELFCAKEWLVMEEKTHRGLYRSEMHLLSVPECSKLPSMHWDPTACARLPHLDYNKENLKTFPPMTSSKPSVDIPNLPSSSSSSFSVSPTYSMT

T2: Rhesus monkey MuSK (recombinant, streptavidine and Flag tag) (rhesus monkey, UniProt O15146 24-495 (human entry))
T2 construct: also called Rhesus MuSK; not shown: streptavidine and Flag tag
T2 chain: T1 sequence with I144T, I278V, V342L, I355V, V389A, L437P

T3: Mouse MuSK (recombinant, streptavidine and Flag tag) (mouse, UniProt Q61006 22-494)
T3 construct: not shown: streptavidine and Flag tag
T3 sequence: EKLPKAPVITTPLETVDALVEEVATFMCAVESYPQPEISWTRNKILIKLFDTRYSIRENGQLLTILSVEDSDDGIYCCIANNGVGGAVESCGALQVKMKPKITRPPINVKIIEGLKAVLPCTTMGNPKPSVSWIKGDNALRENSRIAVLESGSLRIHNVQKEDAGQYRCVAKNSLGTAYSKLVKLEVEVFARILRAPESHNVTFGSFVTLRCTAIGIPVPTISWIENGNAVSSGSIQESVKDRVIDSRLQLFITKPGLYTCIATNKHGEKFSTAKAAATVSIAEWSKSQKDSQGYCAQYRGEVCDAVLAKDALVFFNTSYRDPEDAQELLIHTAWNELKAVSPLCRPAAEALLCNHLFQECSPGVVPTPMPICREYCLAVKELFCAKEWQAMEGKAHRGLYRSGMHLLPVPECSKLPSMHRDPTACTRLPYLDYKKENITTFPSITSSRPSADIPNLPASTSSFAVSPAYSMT

B1: 3D10a (antibody, human IgG1, kappa, L234A L235A, V domains shown)
VH: EVQLVESGGGLVKPGGSLRLSCAASGFTFSASTMAWVRQAPGKGLEWVSSVSGDSHHIYYADSLKGRFTISRDNAKNSLYLQMNSLRAEDTAVYYCARERLLRLGVGFDSWGQGTLVTVSS
VL: DIQMTQSPSSLSASVGDRVTITCRASQRISGFVNWYQQKPGKAPKLLIYAASTLQSGVPSRFSGSGSGTDFTLTISSLQPEDFATYYCQQSYSPLYTFGQGTKLEIKR
B2: 4D3 (antibody, human IgG1, kappa, L234A L235A, V domains shown)
VH: B1 VH with A31S, S32Y, A35T, V51I, G53S, D54G, S55G, H57Y, A61T, S110F
VL: B1 VL with R28S, F32Y, V33L, P94A
B3: 3D9b (antibody, human IgG1, kappa, L234A L235A, V domains shown)
VH: EVQLVESGGGLVKPGGSLRLSCAASGFTFSTYTMHWVRQAPGKGLEWVSSISSRSAYKYYADSVKGRFTISRDNAKNSLYLQMNSLRAEDTAVYYCARDFFQLGPPRFDSWGQGTLVTVSS
VL: B1 VL with G31S, V33L, A50G, T53N, L95S
B4: 3F6c (antibody, human IgG1, kappa, L234A L235A, V domains shown)
VH: EVQLVESGGGLVKPGGSLRLSCAASGFTFSSYTMDWVRQAPGKGLEWVSSIGSNGDYIYYADSVRGRFTISRDNAKNSLYLQMNSLRAEDTAVYYCARGQLAVAGTHFDYWGQGTLVTVSS
VL: B1 VL with R28K, I29V, S30N, G31K, F32Y, Y96S

What follows are binders tested against T1, Human MuSK (R&D Systems, cat. 10189-MK, …) (assay: SPR (Biacore), koff at pH 5.5 over koff at pH 7.4).
Description: (§1) In order to study pH dependent binding of our antibodies to MuSK, the Biacore was used with the same setup as described in the paragraph entitled “Binding affinity for mouse, human and rhesus monkey recombinant MuSK in Biacore”. 6. […] For the other antibodies there is no real difference observed between pH 7.4 and 5.5.

In order of falling “Fold difference (5.5/7.4) of koff” value:
1. B4  2.5 fold
2. B2  1.1 fold
3. B1  0.6 fold
4. B3  0.3 fold

What follows are binders tested against T1, Human MuSK (R&D Systems, cat. 10189-MK, …) (assay: SPR (Biacore), pH 7.4 (summary table, repeats the average of Table 16)).
Description: as §1

In order of falling koff:
1. B2  0.00014 s⁻¹
2. B3  0.00012 s⁻¹
3. B4  8e-05 s⁻¹

Each binder was assayed against T1, Human MuSK (R&D Systems, cat. 10189-MK, …) (assay: SPR (Biacore), MuSK-coated chip presaturated with 500 nM 4D3 (competitor)).
Procedure: (§2) A chip was coated with ˜5000 RU of human MuSK (Lot nr DHUCO 11908A, batch nr 1089_MK). In a first experiment the saturating concentration of the pre-leads was determined. This is the concentration where the amplitude of a specific pre-lead doesn't increase anymore when additional pre-lead is injected on the immobilized MuSK.

In order of rising “amplitude of prelead after presaturating MuSK (RU)” value:
1. B2  45 RU
2. B4  59 RU
3. B1  68 RU
4. B3  163 RU

In order of rising “extra amplitude (%)” value:
1. B2  5.2%
2. B4  5.8%
3. B1  7.2%
4. B3  14.9%

In order of rising “normalized extra amplitude (%)” value:
1. B2  0%
2. B4  0.6%
3. B1  1.9%
4. B3  9.6%

Each binder was assayed against T1, Human MuSK (R&D Systems, cat. 10189-MK, …) (assay: SPR (Biacore), antibody captured on anti-hFc chip, MuSK injected 0.3125-10 nM).
Procedure: (§3) The affinity of 3D10a, 4D3, 3F6c and 3D9b for human, rhesus monkey and mouse MuSK was tested in Biacore using the setup shown in FIG. 3. […] The affinities are very high keeping in mind that MuSK was added here in solution, allowing only for monovalent binding (affinity versus avidity).

In order of falling Kd:
1. B2  0.26 nM
2. B3  0.17 nM
3. B1  0.16 nM
4. B4  0.05 nM

Target: T2, Rhesus monkey MuSK (recombinant, …)
Test: as above
Procedure: as §3

In order of falling Kd:
1. B2  0.31 nM
2. B3  0.28 nM
3. B1  0.21 nM
4. B4  0.13 nM

What follows are binders tested against T3, Mouse MuSK (recombinant, streptavidine …) in the same assay as above.
Procedure: as §3

In order of falling Kd:
1. B2  0.17 nM
2. B3  0.14 nM
3. B1  0.1 nM
4. B4  0.03 nM

What follows are binders tested against T1, Human MuSK (R&D Systems, cat. 10189-MK, …) (assay: SPR (Biacore), MuSK-coated chip, antibody alone (run of first antibody 3D10a)).
Procedure: as §2

In order of falling “amplitude of prelead without presaturating MuSK (RU)” value:
1. B1  3130 RU
2. B2  2620 RU
3. B4  2510 RU
4. B3  2110 RU

Each binder was assayed against T1, Human MuSK (R&D Systems, cat. 10189-MK, …) (assay: SPR (Biacore), antibody captured on anti-hFc chip; 1.25 nM; dissociation pH 5.5).
Description: as §1

In order of falling koff:
1. B4  0.00018 s⁻¹
2. B2  0.00016 s⁻¹
3. B1  7e-05 s⁻¹
4. B3  3e-05 s⁻¹

Source: patent publication US20230110188A1 (ARGENX IIP, published 2023)
